Results on 27 sequences are retold here after the Immune Epitope Database (IEDB).

One test has as its target HLA-A*02:01. In words: IEDB peptide-MHC binding, purified MHC/competitive/radioactivity; filed as Kd, often an IC50 or EC50 that approximates it; ≥ and ≤ were set here for values at or beyond the usual limits of such assays.
A further test concerns the target HLA-B*44:02. The test is described as above.
In another test the target is HLA-B*44:03. The test is described as above.
The target in a further test is HLA-B*40:01. The description is as above.
The target of a further test is HLA-A*68:02. The description is as above.
Test [1] deals with HLA-B*15:01. Described as above. The following applies: source organism: Vaccinia virus WR.
The next test addresses HLA-A*26:01. Described as above.
The target of a further test is HLA-A*02:03. The description is as above.
Another test has as its target HLA-A*02:02. The test is described as above.
The next test deals with HLA-A*02:06. The description is as above.
A further test addresses HLA-A*01:01. The description is as above.
The target of a further test is HLA-A*29:02. The test is described as above.
For a further test, the target named is HLA-A*30:02. The description is as above.
The target in the next test is HLA-A*30:01. The test is described as above.
A further test has as its target HLA-A*32:01. The description is as above.
The target in another test is HLA-B*51:01. The test is described as follows: IEDB peptide-MHC binding, purified MHC/competitive/fluorescence; filed as Kd, often an IC50 or EC50 that approximates it; ≥ and ≤ were set here for values at or beyond the usual limits of such assays. The settings on record: source organism: Bacillus anthracis str. A0442.
The target of a further test is HLA-B*46:01. The test is described as above. The settings on record: source organism: Vibrio vulnificus CMCP6.
For test [2], the target named is HLA-B*15:01. The description is as above. The settings on record: source organism: Human immunodeficiency virus 1.
Where [3] appears, read: source organism: Dengue virus 2 Jamaica/1409/1983.
The mark [4] stands for this setting: source organism: Dengue virus 4 Philippines/H241/1956.
Setting [5] is: source organism: Dengue virus 3 Martinique/1243/1999.
The mark [6] stands for this setting: source organism: Trypanosoma cruzi.
Setting [7] is: source organism: Mammarenavirus choriomeningitidis.
Setting [8] is: source organism: Mammarenavirus brazilense.
[9] abbreviates: source organism: Dengue virus 1 Brazil/97-11/1997.
Setting [10] is: source organism: HIV-1 M:B_ARV2/SF2.
Setting [11] is: source organism: Mammarenavirus guanaritoense.

What is called Kd is the constant that tells how readily two partners part at equilibrium. Turning to AAGLQDCTM, the Kd in the test with HLA-A*02:01 (source organism: Hepatitis C virus (isolate 1)) is at least 50000 nM.
AEAIFKLTYQ: the dissociation constant (Kd) worked out at 200 nM with HLA-B*44:02 (setting [3]), 267 nM with HLA-B*44:03 (setting [3]) and 1430 nM with HLA-B*40:01 (setting [3]).
On to AGADTSEVHW, for which the Kd in the test with HLA-B*44:02 (setting [4]) came out at 4920 nM.
For the sequence ATMANEMGFL, the dissociation constant Kd with HLA-A*68:02 (setting [3]) amounted to 68.4 nM.
As to AVFMLMETM, in the test with HLA-B*15:01 [1], the Kd came to 26 nM.
With AVWDQYKDL, in the test with HLA-A*02:01 (source organism: Lassa virus Josiah), the Kd turned out to be 12500 nM.
For DTAWDFGSV, the Kd with HLA-A*26:01 (setting [5]) came to 172 nM; in the test with HLA-A*68:02 (setting [5]), 1.5 nM.
Regarding DVSRPTTVM, the Kd with HLA-A*02:03 (setting [6]) is 15400 nM; with HLA-A*02:02 (setting [6]), at least 33600 nM; in the test with HLA-A*02:06 (setting [6]), 15000 nM; with HLA-A*02:01 (setting [6]), at least 69400 nM; in the test with HLA-A*68:02 (setting [6]), 1010 nM.
With EENMEVEIW, the Kd in the test with HLA-B*44:02 (setting [4]) worked out at 23.4 nM; in the test with HLA-B*44:03 (setting [4]), 81.5 nM.
Consider EIFSMMVSSF, for which the Kd was determined as 7590 nM with HLA-A*01:01 (setting [7]); 1370 nM with HLA-A*29:02 (setting [7]); 3.79 nM with HLA-A*26:01 (setting [7]); 13200 nM in the test with HLA-A*30:02 (setting [7]); 940 nM in the test with HLA-A*30:01 (setting [7]); 1290 nM with HLA-A*32:01 (setting [7]).
Turning to EMKTQLEEL, the Kd is 81.3 nM with HLA-A*02:03 (source organism: Homo sapiens), at least 20800 nM in the test with HLA-A*02:01 (source organism: Homo sapiens) and 284 nM in the test with HLA-A*68:02 (source organism: Homo sapiens).
Take EMREQHDAQV: the results for the Kd with HLA-A*02:06 (source organism: Homo sapiens) and in the test with HLA-A*68:02 (source organism: Homo sapiens) were at least 68500 nM and 456 nM, respectively.
EPINMFLFI had a Kd with HLA-B*51:01 of 465 nM.
With ESAQPGLLSY, the Kd with HLA-A*01:01 (setting [8]) was 69.8 nM; in the test with HLA-A*29:02 (setting [8]), 3090 nM; in the test with HLA-A*26:01 (setting [8]), 14.3 nM; with HLA-A*30:02 (setting [8]) it was 1690 nM; in the test with HLA-A*30:01 (setting [8]) it was at least 70400 nM; in the test with HLA-A*32:01 (setting [8]), at least 69900 nM.
ESITLATGPL: the figures for the Kd with HLA-A*26:01 (setting [9]) and with HLA-A*68:02 (setting [9]) were 1990 nM and 101 nM, respectively.
The like results for ETQHGTVLV were, in that order, 4910 nM and 2.52 nM.
As to EVAETQHGTV, the Kd with HLA-A*68:02 (setting [9]) came out at 1.53 nM.
FAIGDWEPY: the Kd with HLA-B*46:01 came out at 74.1 nM.
For the sequence FLGKIWPSYK, the Kd was 448 nM in the test with HLA-A*02:03 (setting [10]); 449 nM with HLA-A*02:02 (setting [10]); 3010 nM in the test with HLA-A*02:06 (setting [10]); 89.9 nM in the test with HLA-A*02:01 (setting [10]); at least 41200 nM with HLA-A*68:02 (setting [10]).
With GEKALKLSWF, the Kd turned out to be 373 nM in the test with HLA-B*44:02 (setting [9]) and 135 nM with HLA-B*44:03 (setting [9]).
Turning to GERKKLKPRW, the Kd with HLA-B*44:02 (setting [3]) amounted to 839 nM; with HLA-B*44:03 (setting [3]), 1450 nM.
On to GLDLQPCIDL, for which the Kd with HLA-A*68:02 (source organism: Homo sapiens) was at least 60000 nM.
For the sequence GLRDCTMLV, the Kd with HLA-A*02:01 (source organism: hepatitis C virus genotype 1a) was 421 nM.
As to GSLLHGLWPY, the Kd with HLA-A*01:01 (setting [8]) was 496 nM; in the test with HLA-A*29:02 (setting [8]) it was 401 nM; with HLA-A*26:01 (setting [8]), at least 27300 nM; in the test with HLA-A*30:02 (setting [8]) it was 40.4 nM; with HLA-A*30:01 (setting [8]), 102 nM; with HLA-A*32:01 (setting [8]), 1110 nM.
IETLMLLAL: the Kd with HLA-B*44:02 (setting [9]) came out at 1340 nM; with HLA-B*40:01 (setting [9]), 10.7 nM.
In the case of ILGLNKIVRMY, the Kd with HLA-B*15:01 [2] is at least 20000 nM.
As to ILNFVAHVY, the Kd in the test with HLA-A*01:01 (setting [11]) was determined as 7940 nM; with HLA-A*29:02 (setting [11]), 1.24 nM; with HLA-A*26:01 (setting [11]) it was 12000 nM; in the test with HLA-A*30:02 (setting [11]), 0.522 nM; with HLA-A*30:01 (setting [11]), 3140 nM; with HLA-A*32:01 (setting [11]) it was 939 nM.
